{
  "source": "paper PMC2902421",
  "about": "“Molecular cloning and biochemical characterization of a novel erythrose reductase from Candida magnoliae JH110” (Microbial Cell Factories, 2010)",
  "proteins": {"B1": {"name": "CmER (C. magnoliae JH110 erythrose reductase; CmER2 in Table 2) (Entelexis paramagnoliae) (protein)", "chain": "MSSTYTLTRLSAPSMVLNSGSQIPAVGYGLWKQQGSEAKDSVRCAIESGYRHLDCATAYQNHKEVGQAIREAGVPRDELWITSKVWGTHFDNPEEGLDDILEELGVEYLDLLLLHLPVAFKRNPEDPKQLRGLPVDHDMKYADVWARMEKLPKSKVRNIGVSNLTVRALDELLQTAKVTPAVNQVEMHPNLPQKKLLDYCKSKGIVVQAYSPLAQGQHENPVVTDIADDLGVSPAQVVLSWGALRGTNILPKSSTPSRIRENLELIQLSDDHMRRIDALARR", "notes": "N-terminal GST fusion (pGEX-5X-3) in E. coli BL21 with chaperones, GST removed by Factor Xa"}},
  "assay_type_in_all_cases": "biochemical, Entelexis paramagnoliae",
  "key": {"purified protein [1]": {"substrate": "NC(=O)C1=CN([C@@H]2O[C@H](COP(=O)(O)OP(=O)(O)OC[C@H]3O[C@@H](n4cnc5c(N)ncnc54)[C@H](OP(=O)(O)O)[C@@H]3O)[C@@H](O)[C@H]2O)C=CC1", "experiment": "purified protein", "settings": "D-erythrose saturating, pH 5.5, 42 °C, varied: cofactor"}, "purified protein [2]": {"substrate": "O=Cc1ccc([N+](=O)[O-])cc1", "experiment": "purified protein", "settings": "NADPH in excess, pH 5.5 and 42 °C (given for D-erythrose)"}, "[3]": {"substrate": "NC(=O)c1ccc[n+]([C@@H]2O[C@H](COP(=O)(O)OP(=O)(O)OC[C@H]3O[C@@H](n4cnc5c(N)ncnc54)[C@H](OP(=O)(O)O)[C@@H]3O)[C@@H](O)[C@H]2O)c1", "experiment": "steady-state kinetics; reaction not stated", "settings": "co-substrate not given; NADP+-dependent erythritol oxidation stated as not observed; varied: cofactor", "description": "steady-state kinetics; reaction not stated on CmER (C. magnoliae JH110 erythrose reductase; CmER2 in Table 2)"}},
  "data": [
    {"protein": "B1", "values": [
      {"measurement": "Km", "setting": "purified protein [1]", "value": "16 ± 10", "unit": "µM"},
      {"measurement": "kcat", "setting": "purified protein [1]", "value": "48 ± 2.5", "unit": "s⁻¹"},
      {"measurement": "kcat/Km", "setting": "purified protein [1]", "value": "3e+06", "unit": "M⁻¹ s⁻¹"},
      {"measurement": "Km", "setting": "purified protein [2]", "value": "170 ± 10", "unit": "µM"},
      {"measurement": "kcat", "setting": "purified protein [2]", "value": "1.4 ± 0.1", "unit": "s⁻¹"},
      {"measurement": "kcat/Km", "setting": "purified protein [2]", "value": 8200, "unit": "M⁻¹ s⁻¹"},
      {"measurement": "Km", "setting": "[3]", "value": "240 ± 40", "unit": "µM"},
      {"measurement": "kcat", "setting": "[3]", "value": "0.84 ± 0.06", "unit": "s⁻¹"},
      {"measurement": "kcat/Km", "setting": "[3]", "value": 3500, "unit": "M⁻¹ s⁻¹"}
    ]}
  ]
}
